Publication PMC5501727, “The Structure of the R2TP Complex Defines a Platform for Recruiting Diverse Client Proteins to the HSP90 Molecular Chaperone System” (Structure(London, England:1993), 2017)
Blank lines part the entries; values can stand above or below the binder they belong to.

Columns and labels:
[1] = target: T1, Tah1p-Pih1p complex (yeast, UniProt P25638 1-111; P38768 1-344); assay: AUC; sedimentation velocity, 43,000 rpm, samples 2 to 4 μM in 20 mM HEPES pH 7.8, 140 mM NaCl, 5 mM MgCl2, 0.5 mM EDTA, 0.5 mM TCEP; TP alone, R2 alone, and R2 mixed with TP at 1:2.4 molar ratio; conditions: both partners purified
T1 construct: Tah1p, TPR domain protein of yeast R2TP; gene cloned into a modified pET28b (NdeI/BamHI) giving 2xStrep-tagged Tah1p; Pih1p of yeast R2TP; PIH1P gene cloned into p3E (modified pGEX6p) with NdeI and HindIII; Heterodimer of 53 kDa by sedimentation velocity; also called TP; 2xStrep-Tah1p-Pih1p
T1 sequence (looked up) 1: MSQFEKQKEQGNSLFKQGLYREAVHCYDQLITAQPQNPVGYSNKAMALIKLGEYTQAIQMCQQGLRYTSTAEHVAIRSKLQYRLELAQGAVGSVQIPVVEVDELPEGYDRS
T1 sequence (looked up) 2: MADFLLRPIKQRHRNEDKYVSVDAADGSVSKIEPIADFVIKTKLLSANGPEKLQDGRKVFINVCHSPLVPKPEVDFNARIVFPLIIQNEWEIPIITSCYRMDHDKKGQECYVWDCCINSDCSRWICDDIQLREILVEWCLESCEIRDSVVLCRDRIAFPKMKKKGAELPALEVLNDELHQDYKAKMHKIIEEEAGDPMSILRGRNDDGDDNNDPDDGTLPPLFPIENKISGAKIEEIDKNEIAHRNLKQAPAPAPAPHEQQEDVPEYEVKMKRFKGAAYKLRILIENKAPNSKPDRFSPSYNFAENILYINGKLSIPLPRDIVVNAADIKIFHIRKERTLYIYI

[2] = target: T2, Rvb2p (Saccharomyces cerevisiae, UniProt Q12464 1-471); assay: as above; conditions: both partners purified
T2 construct: gene (Genscript) cloned into a modified pRSETA (containing 3X Myc-tags) with NheI and HindIII; also called Rvb2p-only complex; source: Rosetta (DE3) pLysS, co-expressed with Rvb1p, purified (Talon, gel filtration)

- stoichiometry N [1]: 1 Rvb1p-Rvb2p hetero-hexamer per Tah1p-Pih1p complex
B1: Rvb1p-Rvb2p complex (hetero-hexamer) (complex, Saccharomyces cerevisiae)
chain 1: MVAISEVKENPGVNSSNSGAVTRTAAHTHIKGLGLDESGVAKRVEGGFVGQIEAREACGVIVDLIKAKKMSGRAILLAGGPSTGKTALALAISQELGPKVPFCPLVGSELYSVEVKKTETLMENFRRAIGLRIKETKEVYEGEVTELTPEDAENPLGGYGKTISHVIVGLKSAKGTKTLRLDPTIYESIQREKVSIGDVIYIEANTGAVKRVGRSDAYATEFDLETEEYVPLPKGEVHKKKEIVQDVTLHDLDVANARPQGGQDVISMMGQLLKPKKTEITEKLRQEVNKVVAKYIDQGVAELIPGVLFIDEVNMLDIEIFTYLNKALESNIAPVVVLASNRGMTTVRGTEDVISPHGVPPDLIDRLLIVRTLPYDKDEIRTIIERRATVERLQVESSALDLLATMGTETSLRYALQLLAPCGILAQTSNRKEIVVNDVNEAKLLFLDAKRSTKILETSANYL
chain 2: MSIQTSDPNETSDLKSLSLIAAHSHITGLGLDENLQPRPTSEGMVGQLQARRAAGVILKMVQNGTIAGRAVLVAGPPSTGKTALAMGVSQSLGKDVPFTAIAGSEIFSLELSKTEALTQAFRKSIGIKIKEETELIEGEVVEIQIDRSITGGHKQGKLTIKTTDMETIYELGNKMIDGLTKEKVLAGDVISIDKASGKITKLGRSFARSRDYDAMGADTRFVQCPEGELQKRKTVVHTVSLHEIDVINSRTQGFLALFTGDTGEIRSEVRDQINTKVAEWKEEGKAEIVPGVLFIDEVHMLDIECFSFINRALEDEFAPIVMMATNRGVSKTRGTNYKSPHGLPLDLLDRSIIITTKSYNEQEIKTILSIRAQEEEVELSSDALDLLTKTGVETSLRYSSNLISVAQQIAMKRKNNTVEVEDVKRAYLLFLDSARSVKYVQENESQYIDDQGNVQISIAKSADPDAMDTTE
notes: Rvb1p, AAA+ ATPase of yeast R2TP; gene (Genscript) cloned into pET28b with NdeI and BamHI; gene (Genscript) cloned into a modified pRSETA (containing 3X Myc-tags) with NheI and HindIII; also called R2; Rvb1p-Rvb2p hexamer; copies: 3 + 3

- stoichiometry N [2]: 1 Rvb1p per Rvb2p (3:3)
B2: Rvb1p (natural protein, Saccharomyces cerevisiae, UniProt Q03940 1-463, looked up)
chain: B1 chain 1
notes: Rvb1p, AAA+ ATPase of yeast R2TP; gene (Genscript) cloned into pET28b with NdeI and BamHI; also called Rvb1p-only complex
